{
  "source": "the nanobody polyreactivity screen of Harvey et al. (2022)",
  "data": [
    {"assay": "yeast display, Sf9 membrane polyspecificity reagent, FACS + sequencing; frameworks hold sequencing errors", "outline": "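After 36–48 hours of galactose induction, yeast (Saccharomyces cerevisiae BJ5465) displaying a synthetic nanobody library were stained at 4 °C for 1 hour with 10% biotinylated, detergent-solubilized Sf9 membrane reagent. Streptavidin microbeads enriched the stained cells before FACS sorting into low and high (top ~1%) gates on anti-HA and streptavidin fluorescence. Each clone's polyreactivity label reflects its gate of origin.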", "values": [
      {"sequence": "QVQLVESGGGLVQAGGSLRLSCAASGSTFSTNAMGWYRQAPGKERELVARISAGRTNYADSVKGRFTISRDNAKNTVYLQMNSLKPEDTAVYYCNADYQYNRYSRVVGGHYYWGQGTQVTVSS", "polyreactivity (PSR sort gate)": "low polyreactivity"},
      {"sequence": "QVQLVESGGGLVQAGGSLRLSCAASGSTFSTYAMGWYRQAPGKERELVAAIRWSGGSTYYADSVKGRFTISRDNAKNTVYLQMNSLKPEDTAVYYCATDAPDRTDSDSGFDAGYDYWGQGTQVTLSS", "polyreactivity (PSR sort gate)": "low polyreactivity"},
      {"sequence": "QVQLVESGGGLVQAGGSLRLSCAASGSTFSTYAMGWYRQAPGKERELVAAITSSGGSTYYADSVKGRFTISRDNAKNTVYLQMNSLKPEDTAVYYCAAGRGYWWWYGYDYWGQGTQVTVSS", "polyreactivity (PSR sort gate)": "low polyreactivity"},
      {"sequence": "QVQLVESGGGLVQAGGSLRLSCAASGSTFSTYAMGWYRQAPGKERELVARITVSVGSTYYADSVKGRFTMSRDNAKNTVYLQMNSLKPEDTAVYYCAVGSDEVYFVGDYEYWGQGTQVTVSS", "polyreactivity (PSR sort gate)": "low polyreactivity"},
      {"sequence": "QVQLVESGGGLVQAGGSLRLSCAASGSTFSVNAMGWYRQAPGKEREFVAAITGDGVTTYYADSVKGRFTISRDNAKNTVYLQMNSLKPEDTAVYYCAAEDIRQTTGYDYWGQGTQVTVSS", "polyreactivity (PSR sort gate)": "high polyreactivity"},
      {"sequence": "QVQLVESGGGLVQAGGSLRLSCAASGSTFSVNAMGWYRQAPGKEREFVARITWRGGSTYYADSVKRRFTISRDNAKNTVYLPMNSLKPEDTAVYYCAATLRYWWRSSYEDYYWGQGTQVTVSS", "polyreactivity (PSR sort gate)": "low polyreactivity"},
      {"sequence": "QVQLVESGGGLVQAGGSLRLSCAASGSTFSVYAMGWYRQAPGKERELVASISSSVGRTFYADSVKGRFTISRDNSKNTVYLQMNSLKPEDTAVYYCNAGVRYSGFDYWGQGTQVTVSS", "polyreactivity (PSR sort gate)": "high polyreactivity"},
      {"sequence": "QVQLVESGGGLVQAGGSLRLSCAASGSTFSVYGMGWYRQGPGKERELVAAISGYGSRRYYADSLKGRFTISRDNAKNTVYLQMNSLKPEDTAVYYCAAVRRLLQGRTMYYWGQGTQVTVSS", "polyreactivity (PSR sort gate)": "high polyreactivity"},
      {"sequence": "QVQLVESGGGLVQAGGSLRLSCAASGSTFSVYTMGWYRQAPGKERELVAAITSGGTYYADSVKGRFTISRDNAKNTVYLQMNSLKPEDTAVYYCAADVLSVGKHYDYWGQCTQVTVSS", "polyreactivity (PSR sort gate)": "low polyreactivity"},
      {"sequence": "QVQLVESGGGLVQAGGSLRLSCAASGSTFSVYTMGWYRQAPGKERELVATISGGGSTYYADSVKGRFTISRDNAKNTVYLQMNSLKPEDTAVYYCNAQGYGIFTSSLDYWGQGTQVTVSS", "polyreactivity (PSR sort gate)": "low polyreactivity"},
      {"sequence": "QVQLVESGGGLVQAGGSLRLSCAASGSTFSWNTMGWYRQAPGKERELVAAISRRGGSTYYADSVKGRFTISRDNAKNTVYLQMNSLKPEDTAVYYCNAKYYYGHRPATAGRYYYWGQGTQVTVSS", "polyreactivity (PSR sort gate)": "high polyreactivity"},
      {"sequence": "QVQLVESGGGLVQAGGSLRLSCAASGSTFSWYAMGWYRQAPGKERELVATITGSGGSTYYADSVKGRFTISRDNAKNTVYLQMNSLKPEDTAVYYCALDRGYTRWIASHSYQYDYWGQGTQETVSS", "polyreactivity (PSR sort gate)": "low polyreactivity"},
      {"sequence": "QVQLVESGGGLVQAGGSLRLSCAASGSTFSWYSMGWYRQAPGKQRELVAAISSRGGRTYYADSVKGRFTISRDNAKNTVYLQMNSLKPDDTAVYFCAARSRRGEYDYWGQGTQVTVSS", "polyreactivity (PSR sort gate)": "high polyreactivity"},
      {"sequence": "QVQLVESGGGLVQAGGSLRLSCAASGSTFSYNAMGWYRQAPGKERELVAAIRTSGGRTYYADSVKGRFTISRDNAKNTVYLQMNSLKPEDTAVYYCAKRWVYRYGYEYWGQGTQVTVSS", "polyreactivity (PSR sort gate)": "high polyreactivity"},
      {"sequence": "QVQLVESGGGLVQAGGSLRLSCAASGSTFSYNAMGWYRQAPGKERELVAAISKSGGSTSYADSVKGRFTISRDNAKNTVYLQMNSQKPEDTAVYYCNARYSRKYGYWGQGTQVTVSS", "polyreactivity (PSR sort gate)": "high polyreactivity"},
      {"sequence": "QVQLVESGGGLVQAGGSLRLSCAASGSTFSYNAMGWYRQAPGKERELVAAISRGDVSTYYADSVKGRFTISRDNAKNTVYLQMNSLKPEDTAVYYCAAYWYGSQYKWRYDYWGQGTQVTVSS", "polyreactivity (PSR sort gate)": "low polyreactivity"},
      {"sequence": "QVQLVESGGGLVQAGGSLRLSCAASGSTFSYYAMGWYRQAPGKERELVAAITTSGGRTYYADSVKGRFTISRDNAKNTVYLQMNSLKPEDTAVYYCNARSGRLGDYWGQGTQVTVSS", "polyreactivity (PSR sort gate)": "high polyreactivity"},
      {"sequence": "QVQLVESGGGLVQAGGSLRLSCAASGSTFSYYGMGWSRQAPGKERELVAAISWSGGSTYYADSVKGRFTISRDNAKNTVYLQMNSLKPEDTAVYYCARLDSAAEPRQYDYWGQGTQVTVSS", "polyreactivity (PSR sort gate)": "high polyreactivity"},
      {"sequence": "QVQLVESGGGLVQAGGSLRLSCAASGSTFSYYPMGWYREAPGQERELVAAISSRGSSTYYADSVKGRFTISRDNAKNTVYLQMNSLKPEDTAVYYCNAERVVYKWYDYWGQVTQVTVSS", "polyreactivity (PSR sort gate)": "high polyreactivity"},
      {"sequence": "QVQLVESGGGLVQAGGSLRLSCAASGSTFSYYTMGWYRQAPGKEREFVAAISNSGSRTYYADSVKGRFTISRDNAKNTVYLQMNSLKPEDTAVYYCNAAYGYRFPRDYWGQGTQVIVSS", "polyreactivity (PSR sort gate)": "high polyreactivity"},
      {"sequence": "QVQLVESGGGLVQAGGSLRLSCAASGSTFTANALGWYRQAPGKERELVAAITKSGGDTYYADSVKGRFTISRDNAKNTVYLQMNSLKPEDTAVYYCAAESSYFVALTQFYTVEFYYWGQGTQVTVSS", "polyreactivity (PSR sort gate)": "low polyreactivity"},
      {"sequence": "QVQLVESGGGLVQAGGSLRLSCAASGSTFTAYGMGWYRQAPGKERELVAAITWRGGRTYYADSVKGRFTISRDNAKNTVYLQMNSLKPEDTAVYYCAKGAVWRYTTKYGYDYWGQGTQVTVSS", "polyreactivity (PSR sort gate)": "high polyreactivity"},
      {"sequence": "QVQLVESGGGLVQAGGSLRLSCAASGSTFTAYTMGWYRQAPGKERELVAAISKIGTRTYYADSVKGRFTISRDNAKNTVYLQMNSLKPEDTAVYYCATGRSRVYNGRGDYWGQGTQVTVSS", "polyreactivity (PSR sort gate)": "high polyreactivity"},
      {"sequence": "QVQLVESGGGLVQAGGSLRLSCAASGSTFTDYAMGWYRQAPGKERELVAAIDSGGITNYADSVKGRFTISRDNAKNTVYLQMNSLKPEDTAVYYCAVEGEYLTPSGRYRLDYWGQGTQVTVSS", "polyreactivity (PSR sort gate)": "low polyreactivity"},
      {"sequence": "QVQLVESGGGLVQAGGSLRLSCAASGSTFTDYDMGWYRQAPGKERELVAAITSGGSTNYADSVKGRFTISRDNAKNTVYLQMISLKPEDTAVYYCAAADADRKYDYWGQGTQVTVSS", "polyreactivity (PSR sort gate)": "low polyreactivity"},
      {"sequence": "QVQLVESGGGLVQAGGSLRLSCAASGSTFTDYTMGWYRQAPGKERELVAVISQSGGSTYYADSVKGRFTISRDNAKNTVYLQMNSLKPEDTAVYYCAADPREDNQDRYYWGQGTQVTVSS", "polyreactivity (PSR sort gate)": "high polyreactivity"},
      {"sequence": "QVQLVESGGGLVQAGGSLRLSCAASGSTFTFYAMGWYRQAPGKERELVATISSSGGSTYYADSVKGRFTISRDNAKNTVYLQMNSLKPEDTAVYYCTATTAPRDGKWQGGMDYWGQGTQVTVSS", "polyreactivity (PSR sort gate)": "low polyreactivity"},
      {"sequence": "QVQLVESGGGLVQAGGSLRLSCAASGSTFTGNAMGWYRQAPGKERELVASIRSGATTYYADSVKGRFTISRDNAKNTVYLQMNSLKPEDTAVYYCAKRYLGRRGDVYYWGQGTQVTVSS", "polyreactivity (PSR sort gate)": "high polyreactivity"},
      {"sequence": "QVQLVESGGGLVQAGGSLRLSCAASGSTFTGNDMGWYRQAPGKERELVASIRRGDRTYYADSVKGRFTISRDNAKNTVYLQMNSLKREDTAVYYCAKPVWWRVYRHGGRFGYWGQGTQVTVSS", "polyreactivity (PSR sort gate)": "low polyreactivity"},
      {"sequence": "QVQLVESGGGLVQAGGSLRLSCAASGSTFTGYAMGWYRQAPGQERELVAAISRSGGSTYYADSVKGRFTISRDNAKNTVYLQMNSLKPEDTAVYYCNARGFTRYTVGRNYWGQGTQVTVSS", "polyreactivity (PSR sort gate)": "high polyreactivity"},
      {"sequence": "QVQLVESGGGLVQAGGSLRLSCAASGSTFTINAKGWYRQAPGKERELVAAISWSGGTTYYADSVKGRFTISRDNAKNTVYLQMTSLKPEDTAVYYCAARSYYGYDYWGQGTQVTVSS", "polyreactivity (PSR sort gate)": "high polyreactivity"},
      {"sequence": "QVQLVESGGGLVQAGGSLRLSCAASGSTFTINVMGWYRQAPGKERELVAAINGGGRTNYADSVKGRFTFSRDNAKNTVYLQMNSLKPEDTAVYYCAADGLSHVRQMDYWGQGTQVTVSS", "polyreactivity (PSR sort gate)": "low polyreactivity"},
      {"sequence": "QVQLVESGGGLVQAGGSLRLSCAASGSTFTIYAMGWYRQAPGTERELVATIRAGGGRTSYADSVKGRFTISRDNAKNTVYLQMNSLKPEDTAVYYCAVYVRPTRYGYWGQGTQVTVSS", "polyreactivity (PSR sort gate)": "high polyreactivity"},
      {"sequence": "QVQLVESGGGLVQAGGSLRLSCAASGSTFTIYAMGWYRQATGKERELVATIRAGGGRTSYADSVKGRFTISRDNAKNTVYLQMNSLKPEDTAVYYCAVYVRPTRYGYWGQGTQVTVSS", "polyreactivity (PSR sort gate)": "high polyreactivity"},
      {"sequence": "QVQLVESGGGLVQAGGSLRLSCAASGSTFTKNAMGWYRPAPGKERELVAVISSGGSTNYADSVKGRFTISRDNAKNTVDLQMNSLKPEDTAVYYCAAEHYILYDYLWAYDYWGQGTQVTVSS", "polyreactivity (PSR sort gate)": "high polyreactivity"},
      {"sequence": "QVQLVESGGGLVQAGGSLRLSCAASGSTFTLYAMGWYRQAPGTERELVAAISWSGDTTYYADSVKGRFTISRDNAKNTVYLQMNILKPEDTAVYYCAADWYNSYYYEHESWGQGTQVTVSS", "polyreactivity (PSR sort gate)": "high polyreactivity"},
      {"sequence": "QVQLVESGGGLVQAGGSLRLSCAASGSTFTLYARGWYRQAPGKERELVATITGSGGSTNYADSVKGRFTISRDNAKNTVYLQMNSLKPEDTAVYYCAADYAVYSFTEFNYWGQGTQVTVSS", "polyreactivity (PSR sort gate)": "high polyreactivity"},
      {"sequence": "QVQLVESGGGLVQAGGSLRLSCAASGSTFTLYVMGWYRQAPGKERELVAAISRGDTTNYADSVKGRFTISRDNAKNTVYLQMNSLKPEDTAVYYCAATYPTFFYWSKGYERDYWGQGTQVTVSS", "polyreactivity (PSR sort gate)": "low polyreactivity"},
      {"sequence": "QVQLVESGGGLVQAGGSLRLSCAASGSTFTPYAMGCYRQAPAKERELVAAINGGGTRTYYADSVKGRFTISRDHAKNTVFLQMNSLKPVDTAVYYCAARTSTSRSYPYNYWGQGTQVTGSS", "polyreactivity (PSR sort gate)": "high polyreactivity"},
      {"sequence": "QVQLVESGGGLVQAGGSLRLSCAASGSTFTPYAMGWYRQAPGKERELVAAISRRGGSTSYADSVKGRFTISRDNAKNTVYLQMNSLKPEDTAVYYCNKKTAASDYDYWGQGTQVTVSS", "polyreactivity (PSR sort gate)": "high polyreactivity"},
      {"sequence": "QVQLVESGGGLVQAGGSLRLSCAASGSTFTPYAMGWYRQAPGKERELVAAITWRTGSTRYADSVKGRFTISRDNAKNTVYLQMNSLKPEDTAVYYCAAKVTRFGAPGVNYWGQGTKVTVSS", "polyreactivity (PSR sort gate)": "high polyreactivity"},
      {"sequence": "QVQLVESGGGLVQAGGSLRLSCAASGSTFTRNAMGWYRQAPGKERELVAAITSSGGSTYYADSVKGRFTISRDNAKNTVYLQMNSLKPEDTAVYYCAAYPHRPRDRELDHWGQGTQVTVSS", "polyreactivity (PSR sort gate)": "low polyreactivity"},
      {"sequence": "QVQLVESGGGLVQAGGSLRLSCAASGSTFTRYAMGWYRQAPGKEREFVAGISWRGGSTYYADSVKGRFTISRDNAKNTVYFQMNSLKPEDTAVYYCAARSFSNIGYHGYGYWGQGTQVTVSW", "polyreactivity (PSR sort gate)": "high polyreactivity"}
    ]}
  ]
}
